The target in test [1] is T1, biotinylated BMP-2 (R&D Systems, Item number 355-BM/CF) (human, UniProt P12643 283-396, biotinylated (sites not given)).
T1 construct: Bought protein, biotinylated, captured on streptavidin plates (phage ELISA) or streptavidin donor beads (ALPHA); also called bone morphogenic protein-2
The experiment in a line: phage ELISA, biotinylated BMP-2 captured on streptavidin-coated wells, HRP anti-M13 antibody, luminescence. For orientation: ELISA stands for enzyme-linked immunosorbent assay.

Another test concerns the target T2, human serum albumin (human, UniProt P02768 25-609).
T2 construct: Cross-reactivity control coated at 5 micrograms/mL; also called HSA
The experiment in a line: phage ELISA, HSA-coated wells, HRP anti-M13 antibody, luminescence. Here is the method: 96-well black ELISA plates were coated with streptavidin (Rows A through D), hIgG (Rows E and F) and human serum albumin (Rows G and H), at a concentration of 5 micrograms/mL in PBS. Plates were incubated overnight at 4° C. Plates were washed 3 times with TBST using a plate washer. To the streptavidin-coated wells in rows C and D, 100 microliters of a 4 micrograms/mL solution of biotinylated-BMP-2 (R&D Systems, Minneapolis, Minn., Item number 355-BM/CF), was introduced and allowed to sit at room temperature for 30 minutes. To all other wells, 100 microliters of PBS was introduced. The plates were again washed 3 times with TBST using the plate washer. The wells were then blocked with 250 microliters of a 3% dehydrated milk suspension in TBST and allowed to sit at room temperature for a minimum of 1 hour. Using phage concentrations determined by the phage titrations, dilutions of the phage stock solutions were performed in a separate 96-well plate to result in phage concentrations of 10¹⁰, 10⁹, 10⁸, 10⁷, 10⁶ and 10⁵ phage/well. After blocking, the ELISA plate was washed 3 times with TBST and 100 microliters of the phage dilutions were introduced to the respective ELISA plates and allowed to sit at room temperature for a minimum of 1 hour. The ELISA plate was again washed 3 times with TBST using the plate washer and 100 microliters of an HRP-conjugated Anti-M13 Phage Mab (1:5000 dilution in PBS) was introduced to each well. The plates were allowed to sit at room temperature for 1 hour after which time the plates were washed 3 times with TBST. Next, a POD HRP-substrate was introduced to each well. The luminescence was read using a luminometer set with a gain of 150.

No end group written: not given here.

T1 sequence (P12643 283-396 limits assumed): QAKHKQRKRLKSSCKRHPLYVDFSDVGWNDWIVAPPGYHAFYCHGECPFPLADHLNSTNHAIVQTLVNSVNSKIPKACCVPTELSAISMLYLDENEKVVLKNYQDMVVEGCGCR

B1: phage displaying the peptide of SEQ ID NO: 8 on the pIX minor coat protein (peptide)
peptide: AGSWCTHPAIGCLS
modifications: cysteine pairing not given here; also: displayed on phage pIX minor coat protein
notes: not shown: pIX minor coat protein of the phage that carries the peptide
Consider B1, for which the binding result in test [1] was “binds”; in the test with human serum albumin, “no binding (tested: 10^9 phage/mL)”.

B2: phage displaying the peptide of SEQ ID NO: 5 on the pIX minor coat protein (peptide)
peptide: AGYRRPIQPGPEAVSLL
modifications: also: displayed on phage pIX minor coat protein, junction not given here
notes: as for B1
Take B2: the binding result is listed as “binds” in test [1] and “no binding (tested: 10^9 phage/mL)” with human serum albumin.

B3: phage displaying the peptide of SEQ ID NO: 18 on the pIX minor coat protein (peptide)
peptide: AGRLCHATVDGVAVGCLT
modifications: cysteine pairing not given here; also: displayed on phage pIX minor coat protein
notes: as for B1
As to B3, the binding result was “binds” in test [1] and “no binding (tested: 10^9 phage/mL)” in the test with human serum albumin.

B4: phage displaying the peptide of SEQ ID NO: 17 on the pIX minor coat protein (peptide)
peptide: AGAHCLRDHMGLTSCIP
modifications: cysteine pairing not given here; also: displayed on phage pIX minor coat protein
notes: as for B1
In the case of B4, the binding result in test [1] is “binds”; in the test with human serum albumin, “no binding (tested: 10^9 phage/mL)”.

B5: phage displaying the peptide of SEQ ID NO: 6 on the pIX minor coat protein (peptide)
peptide: AGRDSFNLLTSSPLPST
modifications: also: displayed on phage pIX minor coat protein, junction not given here
notes: as for B1
With B5, the binding result in the test with human serum albumin was “no binding (tested: 10^9 phage/mL)”.

B6: phage displaying the peptide of SEQ ID NO: 1 on the pIX minor coat protein (peptide)
peptide: AGLPLQSMSRLSYDSLS
modifications: also: displayed on phage pIX minor coat protein, junction not given here
notes: as for B1
Regarding B6, the binding result in test [1] is reported as “binds”; with human serum albumin, “no binding (tested: 10^9 phage/mL)”.

B7: phage displaying the peptide of SEQ ID NO: 11 on the pIX minor coat protein (peptide)
peptide: AGPRCPPMHFSVCLS
modifications: cysteine pairing not given here; also: displayed on phage pIX minor coat protein
notes: as for B1
In the case of B7, the binding result in test [1] is “binds”; with human serum albumin it was “no binding (tested: 10^9 phage/mL)”.

B8: phage displaying the peptide of SEQ ID NO: 15 on the pIX minor coat protein (peptide)
peptide: AGSVCLAQYSATPLCPH
modifications: cysteine pairing not given here; also: displayed on phage pIX minor coat protein
notes: as for B1
In the case of B8, the binding result in test [1] is recorded as “binds”; with human serum albumin, “no binding (tested: 10^9 phage/mL)”.

B9: phage displaying the peptide of SEQ ID NO: 19 on the pIX minor coat protein (peptide)
peptide: AGTVCPPDLTGLTAACYY
modifications: cysteine pairing not given here; also: displayed on phage pIX minor coat protein
notes: as for B1
B9: the binding result was “binds” in test [1] and “no binding (tested: 10^9 phage/mL)” with human serum albumin.

B10: phage displaying the peptide of SEQ ID NO: 20 on the pIX minor coat protein (peptide)
peptide: AGTLCGVDDYTGLTGCLA
modifications: cysteine pairing not given here; also: displayed on phage pIX minor coat protein
notes: as for B1
Turning to B10, the results for the binding result (in test [1]; with human serum albumin) were “binds” and “no binding (tested: 10^9 phage/mL)”, respectively.

B11: phage displaying the peptide of SEQ ID NO: 13 on the pIX minor coat protein (peptide)
peptide: AGSTCIPSMTPLCPS
modifications: cysteine pairing not given here; also: displayed on phage pIX minor coat protein
notes: as for B1
As for B11, the binding result in test [1] is given as “binds”; with human serum albumin it was “no binding (tested: 10^9 phage/mL)”.

B12: phage displaying the peptide of SEQ ID NO: 21 on the pIX minor coat protein (peptide)
peptide: AGIRCPVDAIGLTANCSY
modifications: cysteine pairing not given here; also: displayed on phage pIX minor coat protein
notes: as for B1
Turning to B12, the binding result in test [1] is reported as “binds”; with human serum albumin, “no binding (tested: 10^9 phage/mL)”.

B13: phage displaying the peptide of SEQ ID NO: 2 on the pIX minor coat protein (peptide)
peptide: AGPPGPYIAASAFLALK
modifications: also: displayed on phage pIX minor coat protein, junction not given here
notes: as for B1
Regarding B13, the binding result is listed as “binds” in test [1] and “no binding (tested: 10^9 phage/mL)” with human serum albumin.

B14: phage displaying the peptide of SEQ ID NO: 10 on the pIX minor coat protein (peptide)
peptide: AGLQCSPPLPLYCEP
modifications: cysteine pairing not given here; also: displayed on phage pIX minor coat protein
notes: as for B1
B14: the results for the binding result (in test [1]; with human serum albumin) were “binds” and “no binding (tested: 10^9 phage/mL)”, respectively.

B15: phage displaying the peptide of SEQ ID NO: 16 on the pIX minor coat protein (peptide)
peptide: AGPDCRLSPLQPAVCVW
modifications: cysteine pairing not given here; also: displayed on phage pIX minor coat protein
notes: as for B1
Turning to B15, the binding result in test [1] is “binds”; with human serum albumin, “no binding (tested: 10^9 phage/mL)”.

B16: phage displaying the peptide of SEQ ID NO: 9 on the pIX minor coat protein (peptide)
peptide: AGSPCSPGQLPLCPA
modifications: cysteine pairing not given here; also: displayed on phage pIX minor coat protein
notes: as for B1
Take B16: the binding result in test [1] is on record as “binds”; with human serum albumin, “no binding (tested: 10^9 phage/mL)”.

B17: phage displaying the peptide of SEQ ID NO: 14 on the pIX minor coat protein (peptide)
peptide: AGRECLPQFGLPLCPD
modifications: cysteine pairing not given here; also: displayed on phage pIX minor coat protein
notes: as for B1
In the case of B17, the binding result in test [1] is listed as “binds”; in the test with human serum albumin it was “no binding (tested: 10^9 phage/mL)”.

B18: phage displaying the peptide of SEQ ID NO: 12 on the pIX minor coat protein (peptide)
peptide: AGASCSPGLHPLCPG
modifications: cysteine pairing not given here; also: displayed on phage pIX minor coat protein
notes: as for B1
In the case of B18, the figures for the binding result (in test [1]; with human serum albumin) were “binds” and “no binding (tested: 10^9 phage/mL)”, respectively.

B19: phage displaying the peptide of SEQ ID NO: 22 on the pIX minor coat protein (peptide)
peptide: AGRSCYREPSTMLYACTA
modifications: cysteine pairing not given here; also: displayed on phage pIX minor coat protein
notes: as for B1
For B19, the figures for the binding result (in test [1]; with human serum albumin) were “binds” and “no binding (tested: 10^9 phage/mL)”, respectively.
